Results as given in patent US20250333467A1 (TECTONIC OPERATING, published 2025).
Substitutions are numbered along the chain they refer to. Read-outs that look alike come from different tables or passages of the source. One block for each binder: values may come before it.

Tests used:
Assay in all cases: cell-based or functional assay
[1] = target: T1, human RXFP1 (human, UniProt Q9HBX9 1-757)
T1 sequence (looked up): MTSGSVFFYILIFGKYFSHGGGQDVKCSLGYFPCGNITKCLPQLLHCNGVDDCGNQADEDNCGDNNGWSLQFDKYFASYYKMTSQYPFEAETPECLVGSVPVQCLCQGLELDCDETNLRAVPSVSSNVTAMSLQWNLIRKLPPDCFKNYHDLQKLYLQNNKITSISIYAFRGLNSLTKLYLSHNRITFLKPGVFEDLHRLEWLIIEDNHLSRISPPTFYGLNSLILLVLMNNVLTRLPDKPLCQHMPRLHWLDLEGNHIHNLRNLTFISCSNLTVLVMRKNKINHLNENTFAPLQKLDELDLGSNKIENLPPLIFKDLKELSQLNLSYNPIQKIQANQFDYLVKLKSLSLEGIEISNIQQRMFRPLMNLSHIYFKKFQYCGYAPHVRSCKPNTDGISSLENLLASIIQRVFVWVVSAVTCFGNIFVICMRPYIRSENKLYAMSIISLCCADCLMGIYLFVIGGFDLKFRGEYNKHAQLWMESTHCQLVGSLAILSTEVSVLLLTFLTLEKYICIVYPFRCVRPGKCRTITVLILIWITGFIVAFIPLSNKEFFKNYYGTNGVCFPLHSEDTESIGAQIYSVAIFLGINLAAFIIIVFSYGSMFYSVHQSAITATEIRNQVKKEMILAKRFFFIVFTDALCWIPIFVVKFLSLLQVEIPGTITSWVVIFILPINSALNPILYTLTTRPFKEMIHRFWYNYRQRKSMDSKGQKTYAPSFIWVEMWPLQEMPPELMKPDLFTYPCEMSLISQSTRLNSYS

[2] = target: T2, rat RXFP1 (rat, UniProt Q6R6I6 1-758)
T2 sequence (looked up): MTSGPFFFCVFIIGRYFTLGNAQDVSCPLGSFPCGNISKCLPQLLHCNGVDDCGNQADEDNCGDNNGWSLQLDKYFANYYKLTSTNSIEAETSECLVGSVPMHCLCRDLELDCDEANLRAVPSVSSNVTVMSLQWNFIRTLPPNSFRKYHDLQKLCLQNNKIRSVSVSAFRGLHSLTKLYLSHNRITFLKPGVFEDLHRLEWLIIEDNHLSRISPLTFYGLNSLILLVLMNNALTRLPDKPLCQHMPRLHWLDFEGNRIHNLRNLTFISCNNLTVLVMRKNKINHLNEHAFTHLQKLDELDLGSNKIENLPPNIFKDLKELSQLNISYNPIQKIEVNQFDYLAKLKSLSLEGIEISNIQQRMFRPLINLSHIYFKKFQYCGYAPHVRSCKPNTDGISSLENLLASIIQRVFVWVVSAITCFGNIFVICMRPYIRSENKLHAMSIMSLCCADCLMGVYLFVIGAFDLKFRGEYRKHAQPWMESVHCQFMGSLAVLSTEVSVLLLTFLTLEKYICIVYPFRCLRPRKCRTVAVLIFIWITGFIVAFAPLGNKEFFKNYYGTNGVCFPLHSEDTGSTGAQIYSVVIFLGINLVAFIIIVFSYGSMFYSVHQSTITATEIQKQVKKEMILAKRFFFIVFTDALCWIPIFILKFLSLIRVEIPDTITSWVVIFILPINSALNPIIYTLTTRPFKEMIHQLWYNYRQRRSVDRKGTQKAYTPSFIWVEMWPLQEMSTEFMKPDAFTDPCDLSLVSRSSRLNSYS

[3] = target: T1, human RXFP1; remark: listed apart in the source
[4] = target: T1, human RXFP1; remark: listed apart in the source

B8: SEQ ID NO: 123 (Fc fusion)
chain: DKTHTCPPCPAPEAAGGPSVFLFPPKPKDTLMISRTPEVTCVVVDVSHEDPEVKFNWYVDGVEVHNAKTKPREEQYNSTYRVVSVLTVLHQDWLNGKEYKCKVSNKALAAPIEKTISKAKGQPREPQVYTLPPSRDELTKNQVSLTCLVKGFYPSDIAVEWESNGQPENNYKTTPPVLDSDGSFFLYSKLTVDKSRWQQGNVFSCSVLHEALHSHYTQKSLSLSPGKGGSDSWQEEVIKLCGRELVRAQIAICGKSTASDAAGAEAEAGARQLYSALANKCCYVGCTKRSLAQFC
- Potency (cAMP, transient hRXFP1 in HEK293) [1]: 11.7 nM

B9: SEQ ID NO: 101 (Fc fusion)
chain: B8 chain with K227E, K255Q, Y283H
- Potency (cAMP, transient hRXFP1 in HEK293) [4]: 29.4 nM

B10: SEQ ID NO: 113 (Fc fusion)
chain: B8 chain with K227E, K255Q, E265N, E267D, Y283H, R289Q
- Potency (cAMP, transient hRXFP1 in HEK293) [4]: 26 nM

B12: SEQ ID NO: 108 (Fc fusion)
chain: B8 chain with K227E, Y283H, R289Q
- Potency (cAMP, transient hRXFP1 in HEK293) [4]: 35.2 nM

B13: SEQ ID NO: 120 (Fc fusion)
chain: B8 chain with W233F, Y283H
- Potency (cAMP, transient hRXFP1 in HEK293) [1]: 4.8 nM

B14: SEQ ID NO: 103 (Fc fusion)
chain: B8 chain with K227E, K255Q, E265D, E267Q, Y283H
- Potency (cAMP, transient hRXFP1 in HEK293) [4]: 12.2 nM

B15: SEQ ID NO: 90 (Fc fusion)
chain: B8 chain with E265Q, E267Q, Y283H
- THP1 (endogenous RXFP1) cAMP EC50 [3]: 4.4 nM
- Transient HEK293 hRXFP1 cAMP EC50 [3]: 0.6 nM
- Potency (cAMP, transient hRXFP1 in HEK293) [4]: 0.6 nM

B18: SEQ ID NO: 112 (Fc fusion)
chain: B8 chain with K227E, K255Q, E265D, E267N, Y283H, R289Q
- Potency (cAMP, transient hRXFP1 in HEK293) [4]: 24.8 nM

B19: SEQ ID NO: 116 (Fc fusion)
chain: B8 chain with K227E, K255Q, E265Q, E267D, Y283H, R289Q
- Potency (cAMP, transient hRXFP1 in HEK293) [4]: 25.9 nM

B20: SEQ ID NO: 124 (Fc fusion)
chain: B8 chain with Y283L
- Potency (cAMP, transient hRXFP1 in HEK293) [1]: 20.8 nM

B21: SEQ ID NO: 121 (Fc fusion)
chain: B8 chain with W233L, Y283H
- Potency (cAMP, transient hRXFP1 in HEK293) [1]: 5.5 nM

B22: SEQ ID NO: 110 (Fc fusion)
chain: B8 chain with K227E, E265D, E267Q, Y283H, R289Q
- Potency (cAMP, transient hRXFP1 in HEK293) [4]: 17.2 nM

B23: SEQ ID NO: 126 (Fc fusion)
chain: B8 chain with Y283K
- Potency (cAMP, transient hRXFP1 in HEK293) [1]: 8.3 nM

B27: SEQ ID NO: 102 (Fc fusion)
chain: B8 chain with K227E, K255Q, E265Q, E267D, Y283H
- Potency (cAMP, transient hRXFP1 in HEK293) [4]: 7.5 nM

B28: SEQ ID NO: 106 (Fc fusion)
chain: B8 chain with K227E, E265N, E267D, Y283H, R289Q
- Potency (cAMP, transient hRXFP1 in HEK293) [4]: 14 nM

B29: SEQ ID NO: 125 (Fc fusion)
chain: B8 chain with Y283Q
- Potency (cAMP, transient hRXFP1 in HEK293) [1]: 11.1 nM

B30: SEQ ID NO: 122 (Fc fusion)
chain: B8 chain with W233I, Y283H
- Potency (cAMP, transient hRXFP1 in HEK293) [1]: 6.5 nM

B31: SEQ ID NO: 117 (Fc fusion)
chain: B8 chain with K227E, K255Q, E265D, E267Q, Y283H, R289Q
- Potency (cAMP, transient hRXFP1 in HEK293) [4]: 31.2 nM

B32: SEQ ID NO: 119 (Fc fusion)
chain: B8 chain with W233Y, Y283H
- Potency (cAMP, transient hRXFP1 in HEK293) [1]: 4.9 nM

Results, then the binder that gave them:

- Potency (cAMP, transient hRXFP1 in HEK293) [1]: 7.5 nM
B1: SEQ ID NO: 138 (Fc fusion)
chain: DKTHTCPPCPAPEAAGGPSVFLFPPKPKDTLMISRTPEVTCVVVDVSHEDPEVKFNWYVDGVEVHNAKTKPREEQYNSTYRVVSVLTVLHQDWLNGKEYKCKVSNKALAAPIEKTISKAKGQPREPQVYTLPPSRDELTKNQVSLTCLVKGFYPSDIAVEWESNGQPENNYKTTPPVLDSDGSFFLYSKLTVDKSRWQQGNVFSCSVLHEALHSHYTQKSLSLSPGKGGSDSYQEEVIKLCGRELVRAQIAICGKSTGGEGSGGEGSGGGRQLYSALANKCCKVGCTKQSLAQFC

- Transient HEK293 rRXFP1 cAMP EC50 [2]: 15.1 nM
- THP1 (endogenous RXFP1) cAMP EC50 [3]: 49 nM
- Transient HEK293 hRXFP1 cAMP EC50 [3]: 10 nM
- Potency (cAMP, transient hRXFP1 in HEK293) [4]: 4.2 nM
B2: SEQ ID NO: 313 (Fc fusion)
chain: B1 chain with Y233W, E260G, G261E, S262G, S267G, G269E, K283H, Q289R

- Potency (cAMP, transient hRXFP1 in HEK293) [1]: 16.4 nM
B3: SEQ ID NO: 131 (Fc fusion)
chain: B1 chain with K227E, K283Y, Q289R

- Potency (cAMP, transient hRXFP1 in HEK293) [1]: 42.4 nM
B4: SEQ ID NO: 129 (Fc fusion)
chain: B1 chain with K227E, S267E, K283Y, Q289R

- Potency (cAMP, transient hRXFP1 in HEK293) [1]: 11.2 nM
B5: SEQ ID NO: 132 (Fc fusion)
chain: B1 chain with K227E, Q289R

- Potency (cAMP, transient hRXFP1 in HEK293) [1]: 24.6 nM
B6: SEQ ID NO: 130 (Fc fusion)
chain: B1 chain with K227E, S267E, Q289R

- Potency (cAMP, transient hRXFP1 in HEK293) [1]: 30.6 nM
B7: SEQ ID NO: 133 (Fc fusion)
chain: B8 chain with W233Y, R289Q

- Potency (cAMP, transient hRXFP1 in HEK293) [1]: 11.4 nM
B11: SEQ ID NO: 137 (Fc fusion)
chain: B1 chain with K283Y

- Potency (cAMP, transient hRXFP1 in HEK293) [1]: 21.6 nM
B16: SEQ ID NO: 134 (Fc fusion)
chain: B8 chain with W233Y, Y283K, R289Q

- Potency (cAMP, transient hRXFP1 in HEK293) [1]: 23.2 nM
B17: SEQ ID NO: 128 (Fc fusion)
chain: B8 chain with K227E, W233Y, Y283K

- Potency (cAMP, transient hRXFP1 in HEK293) [1]: 17.6 nM
B24: SEQ ID NO: 136 (Fc fusion)
chain: B1 chain with S267E

- Potency (cAMP, transient hRXFP1 in HEK293) [1]: 32 nM
B25: SEQ ID NO: 127 (Fc fusion)
chain: B8 chain with K227E, W233Y

- Potency (cAMP, transient hRXFP1 in HEK293) [1]: 29.5 nM
B26: SEQ ID NO: 135 (Fc fusion)
chain: B1 chain with S267E, K283Y

- Transient HEK293 hRXFP1 cAMP EC50 [3]: ~150 nM
- Potency (cAMP, transient hRXFP1 in HEK293) [4]: 140 nM
B33: SEQ ID NO: 367 (Fc fusion)
chain: DKTHTCPPCPAPEAAGGPSVFLFPPKPKDTLMISRTPEVTCVVVDVSHEDPEVKFNWYVDGVEVHNAKTKPREEQYNSTYRVVSVLTVLHQDWLNGKEYKCKVSNKALAAPIEKTISKAKGQPREPQVYTLPPSRDELTKNQVSLTCLVKGFYPSDIAVEWESNGQPENNYKTTPPVLDSDGSFFLYSKLTVDKSRWQQGNVFSCSVLHEALHSHYTQKSLSLSPGGGSDSWMEEVIKLCGRELVRAQIAICGKSTGGEGGGEEGGGEGGQLYSALANKCCHVGCTKRSLARFC
